Results taken from patent publication EP4289863A9 (Shanghai Huaota Biopharmaceutical Co., Ltd., dated 2024).

T1: human IL-36R (human, UniProt Q9HB29 20-575)
T1 sequence (looked up): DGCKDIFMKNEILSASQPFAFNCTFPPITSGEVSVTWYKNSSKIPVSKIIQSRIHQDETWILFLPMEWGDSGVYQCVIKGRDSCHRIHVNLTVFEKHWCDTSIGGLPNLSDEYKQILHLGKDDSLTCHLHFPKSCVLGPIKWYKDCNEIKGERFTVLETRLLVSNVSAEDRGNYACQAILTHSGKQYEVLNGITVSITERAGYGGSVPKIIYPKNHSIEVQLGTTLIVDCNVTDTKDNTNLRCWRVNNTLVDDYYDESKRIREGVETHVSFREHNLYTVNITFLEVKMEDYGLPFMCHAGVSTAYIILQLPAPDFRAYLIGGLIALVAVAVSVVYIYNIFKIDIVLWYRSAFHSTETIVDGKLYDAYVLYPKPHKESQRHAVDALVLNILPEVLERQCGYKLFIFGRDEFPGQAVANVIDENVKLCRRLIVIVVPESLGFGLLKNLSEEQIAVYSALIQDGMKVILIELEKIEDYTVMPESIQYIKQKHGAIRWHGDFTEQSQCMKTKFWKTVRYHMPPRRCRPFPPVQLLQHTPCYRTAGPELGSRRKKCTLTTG

T2: Human IL-17A (human, UniProt Q16552 24-155)
T2 sequence (looked up): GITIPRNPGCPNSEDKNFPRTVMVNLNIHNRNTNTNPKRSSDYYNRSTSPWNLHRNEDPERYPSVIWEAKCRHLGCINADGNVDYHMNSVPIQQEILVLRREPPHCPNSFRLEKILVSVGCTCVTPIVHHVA

T3: IL17A (analyte of Table 17) (Homo sapiens (Human), UniProt Q16552 24-155)
T3 sequence: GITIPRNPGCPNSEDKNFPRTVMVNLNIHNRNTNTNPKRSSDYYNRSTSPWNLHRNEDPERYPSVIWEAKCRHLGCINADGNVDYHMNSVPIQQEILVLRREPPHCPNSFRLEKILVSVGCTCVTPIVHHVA

T4: His-tagged human IL-1 Rrp2/IL-1R6 protein (human, UniProt Q9HB29 20-335, limits assumed)
T4 construct: Bought protein; also called His-tagged human IL-1 Rrp2/IL-IR6 protein; not shown: His tag
T4 sequence (looked up): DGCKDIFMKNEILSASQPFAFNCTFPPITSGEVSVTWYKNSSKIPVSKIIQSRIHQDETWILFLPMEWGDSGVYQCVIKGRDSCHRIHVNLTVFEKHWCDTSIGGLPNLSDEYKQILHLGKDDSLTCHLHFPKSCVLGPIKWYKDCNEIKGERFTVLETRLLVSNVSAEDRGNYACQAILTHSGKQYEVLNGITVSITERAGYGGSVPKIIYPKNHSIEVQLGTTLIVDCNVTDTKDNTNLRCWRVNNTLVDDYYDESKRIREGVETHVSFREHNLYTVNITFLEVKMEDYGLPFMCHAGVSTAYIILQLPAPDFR


Assays:
human IL-36R [1] = biological target: T1, human IL-36R; experiment: cell-based or functional assay
Human IL-17A = biological target: T2, Human IL-17A; experiment: cell-based or functional assay
[2] = biological target: T3, IL17A (analyte of Table 17); experiment: SPR Biacore 8K, antibody captured on anti-human chip, antigen as analyte, 1:1 model
human IL-36R [3] = biological target: T1, human IL-36R; experiment: flow cytometry on CHO-K1-huIL-36R-5E10/2F10 cells
human IL-36R [4] = biological target: T1, human IL-36R; experiment: cell-based or functional assay; remark: listed apart in the source
human IL-36R [5] = biological target: T1, human IL-36R; experiment: cell-based or functional assay; remark: listed apart in the source
human IL-36R [6] = biological target: T1, human IL-36R; experiment: cell-based or functional assay; remark: listed apart in the source
human IL-36R [7] = biological target: T1, human IL-36R; experiment: cell-based or functional assay; remark: listed apart in the source
[8] = biological target: T4, His-tagged human IL-1 Rrp2/IL-1R6 …; experiment: SPR Biacore 8K, His-tagged antigen captured by anti-His antibody, antibody as analyte, 1:1 model

Row | Binder | EC50 of inhibition of IL-6 content, NCI/ADR-RES cells stimulated with IL-36β (human IL-36R [1]) [nM] | EC50 of inhibition of IL-6 secretion, HT-1080 cells stimulated with h IL17-A and h TNF-α (Human IL-17A) [nM] | Kd [2] [pM] | koff [2] [s⁻¹] | kon [2] [M⁻¹ s⁻¹] | EC50 (human IL-36R [3]) [nM] | IC50 of GM-CSF release, NCI/ADR-RES cells stimulated with IL-36α (human IL-36R [6]) [ng/mL] | IC50 of GM-CSF release, NCI/ADR-RES cells stimulated with IL-36β (human IL-36R [6]) [ng/mL] | IC50 of GM-CSF release, NCI/ADR-RES cells stimulated with IL-36γ (human IL-36R [6]) [ng/mL] | IC50 of IL-6 release, NCI/ADR-RES cells stimulated with IL-36α (human IL-36R [6]) [ng/mL] | IC50 of IL-6 release, NCI/ADR-RES cells stimulated with IL-36β (human IL-36R [6]) [ng/mL] | IC50 of IL-6 release, NCI/ADR-RES cells stimulated with IL-36γ (human IL-36R [6]) [ng/mL] | IC50 of IL-8 release, NCI/ADR-RES cells stimulated with IL-36α (human IL-36R [6]) [ng/mL] | IC50 of IL-8 release, NCI/ADR-RES cells stimulated with IL-36β (human IL-36R [6]) [ng/mL] | IC50 of IL-8 release, NCI/ADR-RES cells stimulated with IL-36γ (human IL-36R [6]) [ng/mL] | IC50 of pNF-κB, NCI/ADR-RES cells stimulated with IL-36β (human IL-36R [6]) [ng/mL] | Kd [8] [nM] | koff [8] [s⁻¹] | kon [8] [M⁻¹ s⁻¹] | further results
1 | IL17A-IL36R bispecific antibody 700007 (bispecific antibody, not shown: heavy constant region CH1-CH2-CH3) heavy (part 1 of 2): QVQLVQSGSELKKPGASVKVSCKASEYIFTNYGMNWVKQAPGQGFEWMGWIDTNTGEPTYAQGFTGRFVFSLDTSVSTAYLQISSLKAEDTATYYCANYGWGYFDYWGQGTTVTVSS heavy (part 2 of 2): GGGGSGGGGSGGGGSGGGGSQIVLTQSPGTLSLSPGERATLSCRASSSVSSSYLHWYQQKPGQAPRLWIYSTSSRATGIPDRFSGSGSGTDFTLTISRLEPEDFATYYCQQFQSSPLTFGQGTKLEIKGGGGSGGGGSGGGGSGGGGSQVQLVQSGAEVKKPGASVKVSCKASGYTFTSSWMHWAKQAPGQGLEWIGEIHPNSAKTNYNQKFQGRVTMTRDTSISTAYMELSRLRSDDTAVYYCARVDYGKPWFAYWGQGTLVTVSS light: DVVMTQTPPSLPVNPGEPASISCRSSQSLVHSNGYTYLHWYLQKPGQSPQLLIYKVSNHLSGVPDRFSGSGSGTDFTLKISWVEAEDVGVYFCSQSTHVPYTFGGGTKLEIKRTVAAPSVFIFPPSDEQLKSGTASVVCLLNNFYPREAKVQWKVDNALQSGNSQESVTEQDSKDSTYSLSSTLTLSKADYEKHKVYACEVTHQGLSSPVTKSFNRGEC | 0.48 | 0.0766 | 6.13 | 4.33e-05 | 7.06e+06 | 0.693 |  |  |  |  |  |  |  |  |  |  |  |  |  | 
2 | IL17A-IL36R bispecific antibody 700009 (bispecific antibody, not shown: heavy constant region CH1-CH2-CH3) heavy (part 1 of 2): QVQLVQSGSELKKPGASVKVSCKASEYIFTNYGMNWVKQAPGQGFEWMGWIDTNTGEPTYAQGFTGRFVFSLDTSVSTAYLQISSLKAEDTATYYCANYGWGYFDYWGQGTTVTVSS heavy (part 2 of 2): GGGGSGGGGSGGGGSGGGGSQIVLTQSPGTLSLSPGERATLSCRASSSVSSSYLHWYQQKPGQAPRLWIYSTSSRATGIPDRFSGSGSGTDFTLTISRLEPEDFATYYCQQFQSSPLTFGQGTKLEIKGGGGSGGGGSGGGGSGGGGSGGGGSQVQLVQSGAEVKKPGASVKVSCKASGYTFTSSWMHWAKQAPGQGLEWIGEIHPNSAKTNYNQKFQGRVTMTRDTSISTAYMELSRLRSDDTAVYYCARVDYGKPWFAYWGQGTLVTVSS light: DVVMTQTPPSLPVNPGEPASISCRSSQSLVHSNGYTYLHWYLQKPGQSPQLLIYKVSNHLSGVPDRFSGSGSGTDFTLKISWVEAEDVGVYFCSQSTHVPYTFGGGTKLEIKRTVAAPSVFIFPPSDEQLKSGTASVVCLLNNFYPREAKVQWKVDNALQSGNSQESVTEQDSKDSTYSLSSTLTLSKADYEKHKVYACEVTHQGLSSPVTKSFNRGEC | 0.65 | 0.0999 | 7.96 | 5.71e-05 | 7.17e+06 | 0.799 |  |  |  |  |  |  |  |  |  |  |  |  |  | 
3 | anti-IL-36R chimeric antibody 900497 (antibody, V domains shown, Human-mouse chimera: human IgG1 heavy constant region with L234A and L235A (Eu numbering), human kappa light constant region) VH: QVQLQQTGSVLVRPGTSVKLSCKASGYTFTSSWMHWAKQRPGQGLEWIGEIHPNSAKTNYNEKFKGKATLTVDTFSSTAYVDLSSLASEDSAVYYCARVDYGKPWFAYWGQGTLVTVSA VL: QIVLTQSPTIMSASPGERVTMTCSASSSVSSSYLHWYQQKPGSSPKLWIYSTSNLASGVPARFSGSGSGTSYSLTINSMEAEDAATYYCQQFQSSPLTFGAGTKLGLK |  |  |  |  |  |  | 32.8 | 22.4 | 28.8 | 33.2 | 20.4 | 19.8 | 43.9 | 29.2 | 28.4 | 115 | 0.0254 | 1.68e-05 | 660000 | pNFκB detected in HIF under IL-36β stimulation IC50 (human IL-36R [4]): 0.1 µg/mL; HuIL-6 detected in HIF under IL-36β stimulation IC50 (human IL-36R [5]): 0.0837 µg/mL; HuIL-6 detected in HIF under IL-36α stimulation IC50 (human IL-36R [7]): 0.146 µg/mL
4 | humanized anti-IL-36R antibody 900513 (antibody, V domains shown, IgG1 (vector with L234A, L235A) and human kappa) VH: QVQLVQSGAEVKKPGASVKVSCKASGYTFTSSWMHWAKQAPGQGLEWIGEIHPNSAKTNYNQKFQGRVTMTRDTSISTAYMELSRLRSDDTAVYYCARVDYGKPWFAYWGQGTLVTVSS VL: EIVLTQSPGTLSLSPGERATLSCSASSSVSSSYLHWYQQKPGQAPRLWIYSTSNRATGIPDRFSGSGSGTDFTLTISRLEPEDFATYYCQQFQSSPLTFGQGTKLEIK |  |  |  |  |  |  | 20.6 | 18.4 | 17.9 | 12.4 | 22.3 | 12.1 | 39.8 | 22.1 | 18 | 105 | 0.0148 | 1.34e-05 | 904000 | 
5 | humanized anti-IL-36R antibody 900534 (antibody, V domains shown, IgG1 (vector with L234A, L235A) and human kappa) VH: QVQLVQSGAEVKKPGASVKVSCKASGYTFTSSWMHWAKQAPGQGLEWIGEIHPNSAKTNYNQKFQGRVTMTRDTSISTAYMELSRLRSDDTAVYYCARVDYGKPWFAYWGQGTLVTVSS VL: QIVLTQSPGTLSLSPGERATLSCRASSSVSSSYLHWYQQKPGQAPRLLIYSTSSRATGIPDRFSGSGSGTDFTLTISRLEPEDFATYYCQQFQSSPLTFGQGTKLEIK |  |  |  |  |  |  | 20.2 | 18.6 | 21 | 21.6 | 16.8 | 17.6 | 30.4 | 22 | 17.9 | 64.9 | 0.0579 | 5.1e-05 | 881000 | 
